Data as given in paper PMC11162469, “Discovery of RXFP2 genetic association in resistant hypertensive men and RXFP2 antagonists for the treatment of resistant hypertension” (Scientific Reports, 2024).

B1: 1G1: RXFP2 monoclonal antibody from hybridoma, recombinantly expressed in a rat IgG2b backbone (antibody, V domains shown)
VH: EVQLQQSGPELVKPGASVKMSCKASGYTFTDYNMHWVKQKPGQGLEWIGYINPYNDGTEYNEKFKGKATLTSDKSSSTAYMDLSSLTSEDSAVYYCARGLWFAMNYWGQGTSVTVSS
VL: DIQMTQSSSSFSVSLGDRVTITCKASEDIYNRLAWYQQKPGNTPRLLISGATILETGVPSRFSGSGSGKDYTLSIISLQTEDVATYYCQQYWIIPPTFGGGTKLEIK
B2: 3F3: RXFP2 monoclonal antibody from hybridoma, recombinantly expressed in a rat IgG2b backbone (antibody, V domains shown)
VH: QVQLQQPGSVLVRPGASVKLSCKASGYIFTSYWMHWVKQRPGQGLEWIGEIYPNSGRTSYNEKFKGKATVTVDTSSSTAYVDLSSLTSEDSAVYYCASGGHWFAYWGQGTLVTVSA
VL: DIQMTQSSSSFSVSLGDRVTITCKASEDIYNRLAWYQQKPGNAPRLLISGATSLEAGVPSRFSGSGSGKDYTLSITSLQTEDVSTYYCQQYWITPYTFGGGTKLEIK
B3: 3F1: RXFP2 monoclonal antibody from hybridoma, recombinantly expressed in a rat IgG2b backbone (antibody, V domains shown)
VH: QVQLKESGPGLVAPSQSLSITCTVSGFSLTDYGVSWIRQPPGKGLEWLGVIWGGGSTDYNPALKSRLSISKDNSKSQVFLKMNSLQADDTAMYYCVKHEGYYAMDYWGQGTSVTVSS
VL: DIQMTQSPASLSVSVGETVTITCRASENIYSNLAWYQQKQGKSPHLLVYAVTNLADGVPSRFSGSGSGTQYSLKINSLQSEDFGSYYCQHFWGTPYTFGGGTKLEIK
B4: 3G4: RXFP2 monoclonal antibody from hybridoma, recombinantly expressed in a rat IgG2b backbone (antibody, V domains shown)
VH: QVQLKESGPGLVAPSQSLSITCTVSGFSLTSYGVSWVRQPPGKGLEWLGVIWGDGSTNYHSALISRLSISKDNSKSQVFLKLNSLQTDDTATYYCAKSLGYYAMDYWGQGTSVTVSS
VL: DIQMTQSPASLSVSVGETVTITCRASENIYSNLVWYQQKQGKSPQLLVYAATNLAEGVPSRFSGSGSGTQYSLKINSLQSEDFGSYYCQHFWGPPWTFGGGTKLEIK
B5: 3H1: RXFP2 monoclonal antibody from hybridoma, recombinantly expressed in a rat IgG2b backbone (antibody, V domains shown)
VH: QVQLKETGPGLVAPSQSLSITCTVSGFSLTNYGVNWVRQPPGKGLEWLVVIWSDGSTNYNSALKSRLSISKDNSKSQVFLKMNSLQTDDTAMYYCARQQGYYAMDYWGQGTSVIVSS
VL: DIQMTQSPASLSVSVGETVTITCRASENIYSNLAWYQQKQGKSPQLLVYAVTNLADGVPSRFSGSGSGTQYSLKINSLQSEDFGSYYCQHFWGPPYTFGGGTKLEIK
B6: 4H2: RXFP2 monoclonal antibody from hybridoma, recombinantly expressed in a rat IgG2b backbone (antibody, V domains shown)
VH: QVQLRQSGPSLVQPSQSLSITCTVSGFSLTNYGVHWVRQSPGKGLEWLGVIWRGGNTDHNAAFMSRLSITKDNSESQVFFKMNSLQVDDTAIYYCAKAEGYYALDYWGQGTSVTVYS
VL: DIQMTQSPASLSVSVGETVTITCRASENIYSNLAWYQQKQGKSPQLLVYAVTNLADGVPSRFSGSGSGTQYSLKINSLQSEDFGSYYCQHFWGTPWTFGGGTKLEIK
B7: 4H5: RXFP2 monoclonal antibody from hybridoma, recombinantly expressed in a rat IgG2b backbone (antibody, V domains shown)
VH: QVQLKQSGPGLVQPSQSLSITCTVSGFSLTNYGVHWVRQSPGKGLEWLGVIWRDGNTDYNAAFMSRLSITKDNSKSQVFFEMNSLQVDDTAIYYCCRGDGYYAMGYWGQGTSVTVSS
VL: DIQMTQSPASLSVSVGETVTITCRASENIYSNLAWYQQRQGRSPQLLVYAATNLADGVPSRFSGSGSGTQYSLKINSLQSEDFGNYYCQHFWGSPRTFGGGTKLEIK
B8: 4H1: RXFP2 monoclonal antibody from hybridoma, recombinantly expressed in a rat IgG2b backbone (antibody, V domains shown)
VH: QIQLVQSGPELKKPGETVKISCKTSGYTFTKYPMHWVKQAPGEGLKWMGWINTYSGLPTFADDFKGRFAFSLETSANTADLQINNLKNEDMATYFCAREGKKLSGYFDYWGQGTTLTVSS
VL: DIKMTQSPSSMYASLGERVTITCKASQDINSYLTWFQQKPGQSPKTLIYRANRFVDGVPSRFSGSGSGQDYSLTITSLEYEDMGIYYCLQYDEFPYTFGGGTQLEIK
B9: 4A5: RXFP2 monoclonal antibody from hybridoma, recombinantly expressed in a rat IgG2b backbone (antibody, V domains shown)
VH: DVQLVESGGGLVQPGGSRKLSCAASGFTFSTFGMHWVRQAPEKGLEWVAYISSGSSTIYYADTVKGRFTISRDNPKNTLFLQMTSLRSDDTAMYYCSRSYYGSAHYFDYWGQGTTLTVSS
VL: DIQMTQSPASLSVSVGETVTITCRASENIYSNLAWYQQKQGKSPQLLVYVATNLADGVPSRFSGSGSGTQYSLRINNLQSEDFGNYYCQHFWGTPPTFGGGTKLEIK
B10: 4B8: RXFP2 monoclonal antibody from hybridoma, recombinantly expressed in a rat IgG2b backbone (antibody, V domains shown)
VH: QVQLKQSGPGLVQPSQSLSITCTVSGFSLSRYGVHWVRQSPGKGLEWLGVIWSGGSTEYNAVFKSRLSISKDNSKSQVFFKMNSLQANDTAIYYCVRADGYYAMEYWGQGTSVTVSS
VL: DIQMTQSPASLSVSVGETVTITCRASENIYSNLAWYQQKQGKSPQLLVYAVTNLADGVPSRFSGSGSGTQYSLKINSLQSEDFGNYYCQHFWGTPYTFGGGTKLEIK

What was measured:
[1] = Pharmacokinetic study of RXFP2 mAbs in rat; format: in vivo, Wistar Han rats; conditions: for half-life, extrapolated values: Wistar Han rats, 1 mg/kg sc., over 28 days; for AUClast / Cmax / Tmax: male Wistar Han rats, 1 mg/kg s.c., n = 3, mean ± SD
Method: For the pharmacokinetic study of RXFP2 mAbs in rat, 1G1, 2D4, 4B1, 4G6, 1F2, and 3F3 were prepared in phosphate buffered saline (0.100 mg/mL) with low endotoxin (≤ 0.76 EU/mL). Adult male Wistar Han rats (n = 3/mAb) were administered 1 mg/kg subcutaneously (10 mL/kg). Blood samples (100 µL) were collected in EDTA containing tubes at 0.25, 3, 6 24, 48, 96, 168 (day 7), 336 (day 14), 504 (day 21), and 672 (day 28) hours post dose, immediately centrifuged (6100 rpm), and 50 µL plasma stored at − 80 °C until assay. Rats maintained health throughout the study and were anesthetized (isoflurane to effect) and euthanized on day 28.
Frozen rat plasma samples were thawed and analyzed using a qualified analytical method based on sample dilution, followed by Electrochemiluminescence immunoassay analysis. The lower limit of quantification (LLQ) was 0.1 µg/mL using a 10 µL aliquot of 51-fold diluted rat plasma with a higher limit of quantification (HLQ) of 10 µg/mL. RXFP2 mAbs were captured with LDLa protein and detected with sulfo-tag labeled mouse anti-rat IgG2b. The computer systems that were used to acquire and quantify data included Gyrolab Workstation Version 8.1.5 and Watson LIMS version 7.6.1. Rat pharmacokinetic parameters were calculated by non-compartmental analysis (NCA) analysis using WinNonlin Phoenix 64 (version 8.3). Values are reported in mean ± standard deviation.

rat RXFP2 [2] = molecular target: T1, rat RXFP2 (Rattus norvegicus, UniProt F7EMH8); test: INSL3-stimulated CYP11B1 mRNA expression in H295R stably expressing rat RXFP2; format: cell-based; set-up: expressed in transfected cells; conditions: INSL3 EC80 (3.5 nM), 48 h, qPCR; N = 2
T1 sequence (F7EMH8 20-737): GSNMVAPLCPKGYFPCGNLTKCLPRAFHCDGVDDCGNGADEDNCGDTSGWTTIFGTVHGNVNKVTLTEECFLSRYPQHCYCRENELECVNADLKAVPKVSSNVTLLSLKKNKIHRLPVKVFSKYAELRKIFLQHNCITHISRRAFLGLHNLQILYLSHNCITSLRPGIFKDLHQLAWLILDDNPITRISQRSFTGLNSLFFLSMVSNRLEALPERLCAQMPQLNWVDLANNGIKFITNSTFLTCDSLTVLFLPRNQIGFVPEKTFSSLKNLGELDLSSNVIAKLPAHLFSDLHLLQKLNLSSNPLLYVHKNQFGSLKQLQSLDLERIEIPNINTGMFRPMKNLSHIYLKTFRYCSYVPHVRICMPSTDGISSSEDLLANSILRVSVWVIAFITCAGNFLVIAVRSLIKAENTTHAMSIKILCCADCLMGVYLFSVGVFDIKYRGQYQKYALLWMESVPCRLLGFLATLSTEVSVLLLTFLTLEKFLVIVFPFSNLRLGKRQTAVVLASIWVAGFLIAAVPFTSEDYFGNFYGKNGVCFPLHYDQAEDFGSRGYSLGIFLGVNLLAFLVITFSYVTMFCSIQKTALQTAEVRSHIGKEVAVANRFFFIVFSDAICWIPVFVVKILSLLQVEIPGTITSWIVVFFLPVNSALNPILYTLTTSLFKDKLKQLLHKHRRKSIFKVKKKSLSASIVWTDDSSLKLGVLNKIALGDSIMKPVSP
Method: (§1) RXFP2 antagonists were added to H295R-rRXFP2 before addition of INSL3 EC80 (3.5 nM) for 48 h, whereupon the cells and supernatants were collected. CYP11B1 and CYP11B2 mRNA were determined by qPCR and the RXFP2 blocker potencies were calculated (Fig. 5a). Fifteen antibodies have IC50s < 50 nM, and three of the top antibodies (1F2, 4G6, and 2D4) were selected for evaluation in steroid hormone secretion assays by ELISA.
(§2) Data entered as XY table, with x = [Inhibitor] (nM) and y = CYP11B2 or CYP11B1 fold change.

rat RXFP2 [3] = molecular target: T1, rat RXFP2; test: INSL3-stimulated CYP11B2 mRNA expression in H295R stably expressing rat RXFP2; format: cell-based; set-up: expressed in transfected cells; conditions: INSL3 EC80 (3.5 nM), 48 h, qPCR; N = 2
Method: as §1, §2

rat RXFP2 [4] = molecular target: T1, rat RXFP2; test: INSL3-stimulated cAMP assay in HEK293 stably expressing rat RXFP2; conditions: INSL3 EC80-stimulated cAMP, stable expression, N = 2; for IC50: read-out: HEK293-rat RXFP2 cAMP IC50;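 for all read-outs here: cAMP measured with an HitHunter kit in 384-well plates, 11-point dose–response curves up to 1 µM antibody, four-parameter variable-slope fit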
human RXFP2 = human RXFP2 (Homo sapiens, UniProt Q8WXD0); test: INSL3-stimulated cAMP assay in HEK293 stably expressing human RXFP2; conditions: read-out: HEK293-human RXFP2 cAMP IC50; INSL3 EC80-stimulated cAMP, stable expression; N = 2
human RXFP2, sequence (Q8WXD0 whole entry): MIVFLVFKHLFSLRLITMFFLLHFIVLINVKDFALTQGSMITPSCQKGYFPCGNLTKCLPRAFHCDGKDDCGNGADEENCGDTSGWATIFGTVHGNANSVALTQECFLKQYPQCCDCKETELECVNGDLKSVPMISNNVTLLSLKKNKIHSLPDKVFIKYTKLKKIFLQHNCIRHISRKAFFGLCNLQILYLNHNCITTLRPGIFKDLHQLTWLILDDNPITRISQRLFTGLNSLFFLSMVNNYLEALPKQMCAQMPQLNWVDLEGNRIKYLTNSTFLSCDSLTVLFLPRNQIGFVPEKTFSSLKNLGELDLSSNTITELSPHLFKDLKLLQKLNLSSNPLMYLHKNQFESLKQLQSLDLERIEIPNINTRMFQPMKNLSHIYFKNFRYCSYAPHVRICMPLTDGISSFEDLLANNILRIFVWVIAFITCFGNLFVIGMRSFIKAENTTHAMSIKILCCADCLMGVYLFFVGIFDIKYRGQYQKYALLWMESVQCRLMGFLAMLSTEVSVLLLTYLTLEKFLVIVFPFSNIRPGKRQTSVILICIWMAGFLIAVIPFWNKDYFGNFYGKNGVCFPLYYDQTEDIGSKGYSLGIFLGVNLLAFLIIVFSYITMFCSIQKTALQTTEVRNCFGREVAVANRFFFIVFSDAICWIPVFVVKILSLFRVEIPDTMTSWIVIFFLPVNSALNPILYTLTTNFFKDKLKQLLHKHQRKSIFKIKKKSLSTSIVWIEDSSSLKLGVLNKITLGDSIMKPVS

Row | Molecule | half-life, extrapolated values [1] [h] | estimated dose to achieve tenfold higher IC50 HEK-rRXFP2 cAMP activity for approximately 28 days in rat ([1]; from trough concentration, dose-linearity assumed) | AUClast [1] [µg·h/mL] | Cmax [1] [ng/mL] | Tmax [1] [h] | IC50 (rat RXFP2 [2]) [nM] | IC50 (rat RXFP2 [3]) [nM] | HEK293-rat RXFP2 cAMP % Max Response (rat RXFP2 [4]) [%] | IC50 (rat RXFP2 [4]) [nM] | IC50 (human RXFP2) [nM]
1 | B1 | ≥ 264 | approximately 10 mg/kg | 4490 ± 467 | 9820 ± 766 | 120 ± 42 | 0.27 | 0.17 | 87.2 | 28 | 
2 | B2 | ≥ 264 |  | 987 ± 200 | 2350 ± 858 | 168 ± 0 | 3.85 | 0.51 | 78.5 | 37 | 
3 | B3 |  |  |  |  |  | 0.27 | 0.23 | 69.7 | 19.9 | ~589
4 | B4 |  |  |  |  |  | 0.33 | 0.2 | 83.3 | 16.1 | 
5 | B5 |  |  |  |  |  | 0.33 | 0.16 | 71.6 | 15.8 | 
6 | B6 |  |  |  |  |  | 0.26 | 0.13 | 85.7 | 18.9 | 
7 | B7 |  |  |  |  |  | 0.21 | 0.15 | 89.2 | 14.2 | 
8 | B8 |  |  |  |  |  |  |  | 69.7 | 150 | ~218
9 | B9 |  |  |  |  |  | 2.85 | 0.31 | 91.0 | 23.2 | 
10 | B10 |  |  |  |  |  | 0.23 | 0.17 | 86.6 | 21.4 | ~116
